Numbering of substitutions follows the chain as printed. Names may count otherwise.
B1: WT (protein, UniProt Q92847 1-366, looked up)
Growth hormone secretagogue …: MWNATPSEEPGFNLTLADLDWDASPGNDSLGDELLQLFPAPLLAGVTATCVALFVVGIAGNLLTMLVVSRFRELRTTTNLYLSSMAFSDLLIFLCMPLDLVRLWQYRPWNFGDLLCKLFQFVSESCTYATVLTITALSVERYFAICFPLRAKVVVTKGRVKLVIFVIWAVAFCSAGPIFVLVGVEHENGTDPWDTNECRPTEFAVRSGLLTVMVWVSSIFFFLPVFCLTVLYSLIGRKLWRRRRGDAVVGASLRDQNHKQTVKMLAVVVFAFILCWLPFHVGRYLFSKSFEPGSLEIAQISQYCNLVSFVLFYLSAAINPILYNIMSKKYRVAVFRLLGFEPFSQRKLSTLKDESSRAWTESSINT
B2: E197ECL2A (protein)
chain: B1 Growth hormone secretagogue … with E197A
modifications: SNAP tag labelled with SNAP-Lumi4-Tb; left off: SNAP, N-terminal, kept
B3: I1784.60A (protein)
chain: B1 Growth hormone secretagogue … with I178A
modifications: SNAP tag labelled with SNAP-Lumi4-Tb; left off: SNAP, N-terminal, kept
B4: F3097.39A (protein)
chain: B1 Growth hormone secretagogue … with F309A
modifications: SNAP tag labelled with SNAP-Lumi4-Tb; left off: SNAP, N-terminal, kept
B5: L1032.64A (protein)
chain: B1 Growth hormone secretagogue … with L103A
modifications: SNAP tag labelled with SNAP-Lumi4-Tb; left off: SNAP, N-terminal, kept
B6: A204ECL2E (protein, UniProt Q92847 1-366, looked up, variant A204E)
Growth hormone secretagogue …: B1 Growth hormone secretagogue … with A204E
B7: E1243.33A (protein)
chain: B1 Growth hormone secretagogue … with E124A
modifications: SNAP tag labelled with SNAP-Lumi4-Tb; left off: SNAP, N-terminal, kept
B8: Q3027.32A (protein)
chain: B1 Growth hormone secretagogue … with Q302A
modifications: SNAP tag labelled with SNAP-Lumi4-Tb; left off: SNAP, N-terminal, kept
B9: F38N-termA (protein)
chain: B1 Growth hormone secretagogue … with F38A
modifications: SNAP tag labelled with SNAP-Lumi4-Tb; left off: SNAP, N-terminal, kept
B10: F2796.51A (protein)
chain: B1 Growth hormone secretagogue … with F279A
modifications: SNAP tag labelled with SNAP-Lumi4-Tb; left off: SNAP, N-terminal, kept
B11: F2866.58A (protein)
chain: B1 Growth hormone secretagogue … with F286A
modifications: SNAP tag labelled with SNAP-Lumi4-Tb; left off: SNAP, N-terminal, kept
B12: N3057.35A (protein)
chain: B1 Growth hormone secretagogue … with N305A
modifications: left off: SNAP, N-terminal, kept
B13: D992.60A (protein)
chain: B1 Growth hormone secretagogue … with D99A
modifications: SNAP tag labelled with SNAP-Lumi4-Tb; left off: SNAP, N-terminal, kept
B14: R1022.63A (protein)
chain: B1 Growth hormone secretagogue … with R102A
modifications: SNAP tag labelled with SNAP-Lumi4-Tb; left off: SNAP, N-terminal, kept
B15: L37N-termA (protein)
chain: B1 Growth hormone secretagogue … with L37A
modifications: SNAP tag labelled with SNAP-Lumi4-Tb; left off: SNAP, N-terminal, kept
B16: L1814.63A (protein)
chain: B1 Growth hormone secretagogue … with L181A
modifications: SNAP tag labelled with SNAP-Lumi4-Tb; left off: SNAP, N-terminal, kept
B17: F3127.42A (protein)
chain: B1 Growth hormone secretagogue … with F312A
modifications: SNAP tag labelled with SNAP-Lumi4-Tb; left off: SNAP, N-terminal, kept
B18: R2836.55A (protein)
chain: B1 Growth hormone secretagogue … with R283A
modifications: SNAP tag labelled with SNAP-Lumi4-Tb; left off: SNAP, N-terminal, kept

Tests used:
[1] = target: HA-tagged ghrelin receptor F286D (human) (UniProt Q92847)
[2] = cited from earlier work
Source text: Food intake is one of the most fundamental processes required for sustaining human life.

[3] = tested on: ghrelin receptor (WT or mutants); test: Cell-surface expression assay (FACS); format: cell-based, human
Procedure: Cell-surface expression for each mutant was monitored by a fluorescence-activated cell sorting (FACS) assay. In brief, the expressed cells were incubated with mouse anti-HA-FITC antibody (Sigma) at a dilution of 1:200 for 20 min at 4 °C, and then a 9-fold excess of PBS was added to cells. […] The FACS data were analyzed by BD Accuri C6 software 1.0.264.21. The gating strategy and calculation method of expression are shown in Supplementary Fig. 11.
Supplementary Figure 11 | Gating strategy of cell surface expression assay. Circle a gate P1 in the scatter map (black circle). The cells shown in the histogram map are all the cells in the gate P1 in the scatter map. Fluorescence signal intensity (FITC) is presented by […]. With the Blank sample as the reference value of background fluorescence signal (a), the fluorescence signal histogram map is divided into two regions. The left region represents the negative cell community (FITC-), while the right region represents the positive cell community (FITC+). The expression level of cell surface wild-type (WT) ghrelin receptor (b) can be calculated as follows:
(M(FITC+)-M(FITC-))×(FITC+% Parent). M, mean fluorescence intensity. The expression level of the ghrelin receptor mutant is calculated similarly to WT receptor and then is normalized with the WT to calculate the relative expression value. […]

fold decrease in calcium response of HEK293 cells, activity of ghrelin against the WT receptor [1] [fold]	Molecule	growth hormone-releasing activity [2]	Cell-surface expression ([3]; replicate 1) [%]	Cell-surface expression ([3]; replicate 2) [%]	Cell-surface expression ([3]; replicate 3) [%]	Cell-surface expression ([3]; replicate 4) [%]	Cell-surface expression ([3]; replicate 5) [%]
> 250	ghrelin (octanoylated at Ser3) (peptide)						
	ghrelin	potent growth hormone-releasing activity					
	B1		98.69	96.95	107.34	98.90	98.13
	B2		101.89	100.72	102.63	110.56	103.22
	B3		94.94	100.59	91.58	96.01	89.87
	B4		77.16	85.09	81.26	79.68	76.65
	B5		102.32	103.70	96.41	91.52	101.60
	B6		81.34	81.24	78.97	76.38	75.96
	B7		93.73	94.80	89.39	97.54	93.21
	B8		99.52	91.82	87.39	99.41	85.20
	B9		92.98	95.22	93.15	94.06	92.77
	B10		103.70	100.07	101.03	106.36	95.20
	B11		90.14	93.12	89.15	93.89	90.00
	B12		83.54	81.81	86.10	86.24	88.82
	B13		101.25	96.41	90.24	92.75	94.78
	B14		101.47	87.96	94.26	99.21	100.61
	B15		100.75	98.96	98.94	96.06	97.45
	B16		94.17	98.71	96.25	95.38	113.13
	B17		89.96	82.57	78.32	82.11	77.05
	B18		56.22	65.89	64.91	66.07	63.09

Reference: paper PMC8379176 (Nature Communications, 2021)
